Patent US20170319722A1

Key:
[1] = target: His-tagged CD8α human recombinant protein (TP760215, Origene) (human) (UniProt P01732); assay: sandwich ELISA; biotinylated ligand on NeutrAvidin plate, His-tagged CD8α titrated, anti-His-AP detection
[2] = target: CD8 on human peripheral blood mononuclear cells (PBMCs) (human) (UniProt P01732); assay: flow cytometry, human PBMCs, co-stained with CD3-APC mAb
Chain of CD8 on human peripheral blood mononuclear cells (PBMCs) (human) (P01732 22-235): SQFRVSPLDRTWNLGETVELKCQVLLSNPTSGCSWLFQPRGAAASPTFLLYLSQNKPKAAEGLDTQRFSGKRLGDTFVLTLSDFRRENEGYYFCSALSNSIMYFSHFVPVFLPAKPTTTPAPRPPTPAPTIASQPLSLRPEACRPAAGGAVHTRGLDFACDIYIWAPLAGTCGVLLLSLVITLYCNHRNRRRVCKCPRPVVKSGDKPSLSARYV

Chain of His-tagged CD8α human recombinant protein (TP760215, Origene) (human) (P01732 22-182 limits assumed): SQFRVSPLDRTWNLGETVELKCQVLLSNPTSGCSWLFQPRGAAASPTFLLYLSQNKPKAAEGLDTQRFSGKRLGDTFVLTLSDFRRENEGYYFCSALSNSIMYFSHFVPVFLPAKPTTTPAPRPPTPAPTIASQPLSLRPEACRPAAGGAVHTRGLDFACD

Row | EC50 [1] [nM] | % of cells detected (Q2) [2] [%] | % of cells detected (Q4) [2] [%] | Substance
1 | 10 | – | – | biotin-PEG3-Cy(yGGvr) (peptide)
2 | – | 11.2 | 2.1 | human CD8-FITC mAb (clone: RPA-T8) (#561947, BD Biosciences) (antibody)
3 | 20 | – | – | biotin-PEG3-Cy(slrfG) (peptide)
